According to the DeepSol protein solubility set:

Assay: soluble on expression in E. coli; label from the status in PepcDB or PDB records

Sequence	soluble on expression in E. coli
MGSDKIHHHHHHMTNIEVEINDNYICVYERLNDDCIRLLHMYGKNPVCVVPDMLDGMRVTELAEYCFSFKSMPEKLKTELGIDDILRPDMTELCDDYIERVILPDGMKKIGRLCFYNCSRLTMLELPSDICDVDGDAFMNCTKLYMLVMRGSPKDKSCLKQILSQISTLVRVRWADSDGNAIAQACFFEYDQTYDEIGPAHIFKLNMNGEGFRARQAFMDRVFVWKQYDEIFSEAIAQESEDDLLDMAFYRLIYAYELSKEARQQFLEYIVNHKKRLSELIIRKRDSGLLQSFLELKDGEENFIADVLAVTDMLALAAQDEWSEGSVILHRFKKENLSVSRKRRFEF	not soluble
GPGSMYKLPIEAQFNLIEEEFAAIEASTMNPRLYNFTTSNANPTKNRYINVLANEETIFPPTSLTSAPPTTGGSRLSTSGSPPSMASAPSPMKSLTGRAQKIWGVAGQRLFGTRRGGTLPRDVEGNEKFTTGCVTKKYPQWYINANVVDTSVEPVFVASQAPVQECIDDFLAVIYSCEVTLVLMLTELEEAGFVKADRYWPEDSAPADRIESFGSMCVYKDEQDPYTCDAAHELVRRSFYIRPSAASQARAHKIVMYQYVGWPDRGVPDSTESFEELLKIIQGYVMASPAPRVPAAGPESAAHSSIATNSGGDGSTSNTGSGEGSGKLTPPVFVHCSAGIGRTGTLIGAYTAVKLTEAGLLTNTSIRRIVTDMRKARFGMVQRVEQYMFLYMIVLQHMGVDARKFSARMQPRADLYNMRWMEARQKALLGARAAKR	not soluble
ELSGDDQGDEEEDDHAYEGVPNGGWHTSSLSLSLPSTIAAPHPMDGPPGGSTPVTPVIKAGWLDKNPPQGSYIYQKRWVRLDTDHLRYFDSNKDAYSKRFISVACISHVAAIGDQKFEVITNNRTFAFRAESDVERKEWMQALQQAMAEQRARARLSSAYLLGVPGSEQPDRAGSLELRGFKNKLYVAVVGDKVQLYKNLEEYHLGIGITFIDMSVGNVKEVDRRSFDLTTPYRIFSFSADSELEKEQWLEAMQGAIAEALSTSEVAERIWAAAPNRFCADCGAPQPDWASINLCVVICKRCAGEHRGLGAGVSKVRSLKMDRKVWTETLIELFLQLGNGAGNRFWAANVPPSEALQPSSSPSTRRCHLEAKYREGKYRRYHPLFGNQEELDKALCAAVTTTDLAETQALLGCGAGINCFSGDPEAPTPLALAEQAGQTLQMEFLRNNRTTEVPRLDSMKPLEKHYSVVLPTVSHSGFLYKTASAGKLLQDRRAREEFSRRWCVLGDGVLSYFENERAVTPNGEIRASEIVCLAVPPPDTHGFEHTFEVYTEGERLYLFGLESAEQAHEWVKCIAKAFVPPLAEDLLARDFERLGRLPYKAGLSLQRAQEGWFSLSGSELRAVFPEGPCEEPLQLRKLQELSIQGDSENQVLVLVERRRTLYIQGERRLDFMGWLGAIQKAAASMGDTLSEQQLGDSDIPVIVYRCVDYITQCGLTSEGIYRKCGQTSKTQRLLESLRQDARSVHLKEGEQHVDDVSSALKRFLRDLPDGLFTRAQRLTWLEASEIEDEEEKVSRYRELLVRLPPVNRATVKALISHLYCVQCFSDTNQMNVHNLAIVFGPTLFQTDGQDYKAGRVVEDLINHYVVVFSVDEEELRKQREEITAIVKMRVAGTASGTQHAGDFICTVYLEEKKAETEQHIKVPASMTAEELTLEILDRRNVGIREKDYWTCFEVNEREEAERPLHFAEKVLPILHGLGTDSHLVVKKHQAMEAMLLYLASRVGDTKHGMMKFREDRSLLGLGLPSGGFHDRYFILNSSCLRLYKEVRSQRPWSGAPETSHRPEKEWPIKSLKVYLGVKKKLRPPTCWGFTVVHETEKHEKQQWYLCCDTQMELREWFATFLFVQHDGLVWPSEPSRVSRAVPEVRLGSVSLIPLRGSENEMRRSVAAFTADPLSLLRNV	soluble
MSLKSLSYKRIYKSQEYLATLGTIEYRSLFGSYSLTVDDTVFAMVSDGELYLRACEQSAQYCVKYPPVWLTYKKCGRSVTLNYYRVDESLWRNQLKLVRLSKYSLDAALKEKSTRNTRERLKDLPNMSFHLEAILGEVGIKDVRALRILGAKMCWLRLRQQNSLVTEKILFMLEGAIIGIHEAALPVARRQELAEWADSLTPKQEFPAELEEGHHHHHH	soluble
MGSDKIHHHHHHMTRYRFFHTADIHLGKTYRTSTGEAERYEDFFRMLGSIVSDAIAARVDFVLIAGDLFHTGQILPRTFARTIETLQPLKNAGIPCIAVEGNHDWIHRRDSISWMEALSQMGYIHLLRPSRTETGGYRFSPFDYEQGMGGHIEVNGVNIYGLGYIGTQAGAHVARICEAITTTNNILLFHVGVWTYSPVEIGNMKPEEALPLADVFDYVALGHGHKPYIIATPEGRAYAFNPGSPECVNFGEEKYDKGYYLVTVNDGVYTHEFRPTNPRPMLVTTIDLDGAGDAETALTRFRNVVAAKIASFSDDRQPLLEIKLTGRVGFHPFELGRERLRLALEEICNPLHVEIKNHLSLVTAGGGAESEKKSLAEIEREVLRELISAKSEYKGREDELVRLSLAIRDQVLKGETDGEELLGLLMREPA	not soluble
MAHHHHHHMGDFALISMNGDRVFISLDPVFTSQSLWLQAAEGLGEREGVVPIASTETLHNLVEYMAFQAKRMAGVAEGECKGGQTVTLPISCTTCSGSGGLGYDVHSLLPDHDIAFLDRFGGTGGVWEVEQQEKLMELMATADFVGHGRLSRLCAVYISCRLMSATESDILSWFSVCGDRCGGVASADPEADDGNRAGERVLRDAERLRILNQMRKYIEIED	not soluble
MGSIPRVLISADRSSSGKTTISMGLMAALVSRGYKVQPFKVALDYIDPSYHTEITGRFCRNLDGYLMDEHGILDVYTHACETGGGADIAIIEGVRGLFEGFESLSDVGSTAQIAKILKCPVVFVINARSITRSAAALIGGYKNFDPDVEIAGVILNNIGGRRHAQKAKEAIEHYTGVPVLGIIPRDPSMQISMRHLGLMPALEGLEHHHHHH	not soluble
GDFAYTVGFNMSKNWNKVTNLGANDPIIESPWIKKVGYAIGTFYGYRSDGLLTQEDIDTGNYITDGLVPQAGDIKYVDLDGDGKLTDKDRTYIGCDVPDITYGVNLNLRYKGFELSMFGQGVTGTKVNFSMENAWAFSDYASPRKYHLKRWTVDNPNPNAAYPRIYPRTSKHSTYNQYFSDYWLFNADYFRIKNITFGYSFQKPVLQKLSLEALKLYVAAENPFTIRADHRMEDFDPETASGRGVNTRGTSSIAFGVNLTF	not soluble
MGSDKIHHHHHHMAIRAKTNNLIQIRPLTGRRLANSEHNRQEMKNGATVLTSKPQRLVFELTNACNLNCLMCGRNSATFELTRFNSEWFKKFEPIMSDIEEVTLMGWGEPTIHPQFKEMLQYLHERGIRKYFCTNGMRLDVLKDAIFDYEVDVFAVSMDGADAKTNEFLRRGLNYQKVIEGLKAITNEKALRGLNFPHINFVMTMMKSNIRQLPDMVDLAAELGLNEVKGVFLTAFSENLLEETLFDDMDLVRYCFGQAEERAAKLGILLKLPHQRGEDPAGDAAHKPCFTAWRDFFLGSDGYVRACMSSPEKLFHIDQYPDFESMWNSREYQEWRAQVNVPGKMCPSCGRCYQSSFANWNKEHAFIQIDTEFSPKWEK	not soluble
MLIAVPLDDTNFSENLKKAKEKGADIVELRVDQFSDTSLNYVKEKLEEVHSQGLKTILTIRSPEEGGREVKNREELFEELSPLSDYTDIELSSRGLLVKLYNITKEAGKKLIISYHNFELTPPNWIIREVLREGYRYGGIPKIAVKANSYEDVARLLCISRQVEGEKILISMGDYGKISRLAGYVFGSVITYCSLEKAFAPGQIPLEEMVELRKKFYRL	soluble
MSLKQKILIVEDSLTIRRMLIQAIAQQTGLEIDAFDTLEGARHCRGEEYVVALVDLTLPDAPSGEAVKVLLERGLPVVILTADISEEKRAAWLEAGVLDYVMKDSRHSLQYAVSLVHRLYLNQRIEVLVVDDSRTSRHRTMAQLRKQLLQVHEASHAREALAQLEQNPAIRLVLVDYYMPEIDGISLVRMLRERYSKQQLAIIGISVSDKRGLSARYLKQGANDFLNQPFEPEELQCRVSHNLEALEQFNSIQESANRDYLTGLYNRRYWFNEGQKWFEEHQRQETPLALCVLDVDHFKQVNDHWGHAIGDQLLCHLTRLLTQFFPDAMIARFGGEEFALMVPHCTVPVLLKRLEGLRQQMRQQPLSRETPLFVRASFGVIKVGRGSMDEALSEADRLLYQAKNTGRDKIVSQDSSEGHHHHHH	soluble
MGSDKIHHHHHHMSNQRYMMRGVSASKEDVHNAIKNIDKGIFPKAFCKIIPDILGGDPEYCNIMHADGAGTKSSLAYMYWKETGDLSVWKGIAQDALIMNIDDLLCVGAVDNILVSSTIGRNKLLIPGEVISAIINGTDELLAELREMGVGVYATGGETADVGDLVRTIIVDSTVTCRMKRSDVINNANIRPGDVIVGLASYGQATYEKEYNGGMGSNGLTSARHDVFGKYLAEKYPESYDAAVPEELVYSGGLKLTDTVEDSPIDAGKLVLSPTRTYAPVVKKLLDTLRPEIHGMVHCSGGAQTKVLHFVENVRVVKDNLFPVPPLFKTIQEQSGTDWAEMYKVFNMGHRLEVYLSPEHAEEVIAISESFGIPAQIVGRIEACDQTELIIKSEFGEFRY	not soluble
MSASETRSKVLTDESTGSTAIEESPRNRQNEEPEQTSQTENLQTDPFNARISEIFEKQTVAFERQMMIKEEEFMSQMKEREEVKLKDLETKLENFEKWRKEIRLEGAKELNIKLHSEPEVSAELEHEGGLQEK	not soluble
MGSDKIHHHHHHMTYINAQGRLKGCKPIAVIDIGSNSVRLVIYEGLVRSPTVLFNEKILCGLGQGVAKTGLLEENSMNMALRTLKRFRALCLQIGADEIYILATAAAREAKNGLAFIQNAENILQNKIYLLSGSEEAVYSAYGVISTFYQPKGISGDLGGGSLELIDIDNSEVGEGITLPLGGLRLQYMSNNDIAVAAKIAQEQFGKSAVVHKSMARCFYAVGGTWRNLAKLHMATKHYRLPVMHGYEVDAVEMEDFLRFVVNGSIENMKGISAVSKNRRQLLSYGAIILIELIRCVGFEKIIFSGAGVREGFLYSRLPQEVRVSDPLIAACTEMAILRARSPKQAEELIDFTTNAFEVFGILETENECRYRKAACLLADIGWRIHPDYRGNEAANQIALGSYPGISHEGRAYAALAVFFRNTGSLIGEESLPIFQLASKDVIEKARILGEIMRIAHLFSASTTGVLPHLSWHKKIDHVVLHIPARYADLLGERPLSRLKKLSKIIELPLAFEIF	not soluble
MGSDKIHHHHHHMSVSISEKTKQAYQHAVEQASVSLLRQPQNSMADELRLLAEQLQPNEKRDVYGGGSLINDFEDEVAELLGKPAALFLPTGTLAQPLALRVHADERQRNGVALHPTSHLMLHEHMGFEALWKLNGTTTGFADNPITLNDLKSVQTDDLASVLLELPMREIGGQLPNWDDLVMQSEWARQHNIAMHLDGARLWQVPAAYGCSLPEVCELFDSVYVSFYKDLGGISGAILAGSEGFIEQAKIWARRAGGNIITQYPQVLSARHGLKENLPIMPEAVNYARALGEALSALNGVRVNPETPQVAMFHLHFALKANELSEKITDYASNTGVVLLPLPRAEMNNEAICEVSIGRNAMSQPQSFWLRHFKAFLDTL	not soluble
MAHHHHHHMLSLPRDHHYHAHHSGTEFVPFDQVIGITPDGVPVISNGNEFHFSNLESVTPSYQALCSSVRKAPVIVPCTKLGAKWQCVEFARRYLASRKAVWTASMPIAADMLRAEPPFVHVQDSTPVEFTRTPNRSHGPAPAMSDIIVWDQSEETPLGHVAVVTEVLPEAVRVAEQNQGFERWPQGMLYSREISMQRSSAGTVELVDEDSVLGWVTLQCPYYDFRDGDLADKFRIATGPGCIVRQPFPKHVELPWVQPEERCDFYLKRSLAIGGNVGDDARAEECDVPSAFFFYFLDY	not soluble
SKVFNLDRGNTLSVSLFSGVTNSKELLNSMLDGSLKLEVSFLNASLIPGIFPLLAAAQKALISKSRDSLSTRTLHSELVYNYSGSKHITESLKRCGISENTTYILAARFNASPVEMEEVAKLINGKEIDLEELKTHANQANILKHYKITSQELGISSLGDAIVCRIAARDAL	soluble
